Experimental data reported in US20260008852A1.

Target: B7-H3 on CHO-K1 cells stably transfected with B7-H3 (GenScript #M00536) (UniProt Q5ZPR3)
Assay: cell-based or functional assay

Sequence of B7-H3 on CHO-K1 cells stably transfected with B7-H3 (GenScript #M00536) (Q5ZPR3 29-534 limits assumed): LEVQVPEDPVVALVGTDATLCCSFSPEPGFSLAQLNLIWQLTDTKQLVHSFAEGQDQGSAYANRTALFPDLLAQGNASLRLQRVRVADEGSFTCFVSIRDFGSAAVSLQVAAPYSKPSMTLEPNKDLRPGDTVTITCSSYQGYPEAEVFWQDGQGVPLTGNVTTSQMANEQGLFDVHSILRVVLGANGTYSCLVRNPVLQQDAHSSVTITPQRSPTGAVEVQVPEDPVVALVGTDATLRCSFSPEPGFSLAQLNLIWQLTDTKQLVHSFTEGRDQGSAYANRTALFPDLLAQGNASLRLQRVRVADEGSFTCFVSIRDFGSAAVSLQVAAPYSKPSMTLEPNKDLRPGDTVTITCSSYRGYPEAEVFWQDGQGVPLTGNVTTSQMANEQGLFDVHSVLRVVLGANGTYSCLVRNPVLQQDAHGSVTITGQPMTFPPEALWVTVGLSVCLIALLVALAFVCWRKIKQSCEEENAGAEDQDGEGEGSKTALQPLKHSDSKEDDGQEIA

Question: Which results are given for Benchmark MGA-271 (antibody)?
Answer: ADCC reporter assay, EC50 Value, CHOK1/B7-H3 cells: 4.55 µg/mL; ADCC reporter assay, Max RLU, CHOK1/B7-H3 cells: 162000 RLU
